One experiment addresses T1, Cynomolgus Serum Albumin (cynomolgus monkey, UniProt A2V9Z4 25-608).
T1 construct: also called Macaca Fascicularis (cynomolgus monkey) serum albumin
Description: IMAC pull-down from normal serum, SDS-PAGE with Coomassie stain. The procedure: (§1) To evaluate the functionality of binders, selected FN3 domains were tested for their ability to complex with endogenous albumin in normal serum. To ensure that albumin binding was preserved when selected FN3 domains were attached at either the amino or carboxy terminus of another FN3 domain, bivalent FN3 genes were prepared to generate constructs ALB18, ALB 30, ALB 21, ALB33, ALB34 and ALB35 (Table 6).
(§2) C-terminally His6-tagged (SEQ ID NO: 72) bivalent FN3 domains (0.25-2.0 mg/mL in DPBS without calcium or magnesium) were mixed in a 1:1 volumetric ratio with normal serum and incubated for 1 hour at room temperature to allow binding to endogenous albumin in the serum. His6-tagged (SEQ ID NO: 72) FN3 domain-albumin complexes were recovered from serum via immobilized metal affinity chromatography (IMAC) using 200+ PhyTip columns containing a 5 μL resin bed (PureSpeed™ Protein Tip IMAC from Rainin Instrument LLC; Oakland, Calif.) pre-equilibrated with 50 mM Tris, pH 7.0 containing 500 mM NaCl and 10 mM imidazole. Unbound serum proteins were removed by exhaustively washing the resin with equilibration buffer. Bound protein was eluted with 25-100 μL of elution buffer (50 mM Tris, pH 7.0 containing 500 mM NaCl and 250 mM imidazole, pH 7.5). Eluates were analyzed by SDS-PAGE for the co-precipitation of albumin. SDS-PAGE gels were stained with colloidal Coomassie. […]

The target in another experiment is T2, Human Serum Albumin (human, UniProt P02768 25-609).
T2 construct: also called HSA
T2 sequence (P02768 25-609 limits assumed): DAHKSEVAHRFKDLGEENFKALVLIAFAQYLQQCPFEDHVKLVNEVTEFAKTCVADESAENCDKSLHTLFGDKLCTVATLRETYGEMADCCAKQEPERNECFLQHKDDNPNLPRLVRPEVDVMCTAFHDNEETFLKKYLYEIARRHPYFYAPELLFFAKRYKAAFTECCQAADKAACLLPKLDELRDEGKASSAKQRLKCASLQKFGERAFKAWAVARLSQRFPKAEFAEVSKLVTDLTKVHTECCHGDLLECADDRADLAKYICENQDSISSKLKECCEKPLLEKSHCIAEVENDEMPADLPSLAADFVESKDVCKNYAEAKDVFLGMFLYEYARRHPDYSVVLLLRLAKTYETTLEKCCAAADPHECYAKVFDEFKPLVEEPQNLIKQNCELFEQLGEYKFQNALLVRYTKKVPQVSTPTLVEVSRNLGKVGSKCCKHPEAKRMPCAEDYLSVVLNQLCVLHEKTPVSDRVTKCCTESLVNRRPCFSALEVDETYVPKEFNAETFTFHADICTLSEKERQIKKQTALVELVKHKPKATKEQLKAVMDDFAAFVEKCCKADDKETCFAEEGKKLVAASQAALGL
The experiment is described as above. The procedure: as §1, §2

T1 sequence (A2V9Z4 25-608 limits assumed): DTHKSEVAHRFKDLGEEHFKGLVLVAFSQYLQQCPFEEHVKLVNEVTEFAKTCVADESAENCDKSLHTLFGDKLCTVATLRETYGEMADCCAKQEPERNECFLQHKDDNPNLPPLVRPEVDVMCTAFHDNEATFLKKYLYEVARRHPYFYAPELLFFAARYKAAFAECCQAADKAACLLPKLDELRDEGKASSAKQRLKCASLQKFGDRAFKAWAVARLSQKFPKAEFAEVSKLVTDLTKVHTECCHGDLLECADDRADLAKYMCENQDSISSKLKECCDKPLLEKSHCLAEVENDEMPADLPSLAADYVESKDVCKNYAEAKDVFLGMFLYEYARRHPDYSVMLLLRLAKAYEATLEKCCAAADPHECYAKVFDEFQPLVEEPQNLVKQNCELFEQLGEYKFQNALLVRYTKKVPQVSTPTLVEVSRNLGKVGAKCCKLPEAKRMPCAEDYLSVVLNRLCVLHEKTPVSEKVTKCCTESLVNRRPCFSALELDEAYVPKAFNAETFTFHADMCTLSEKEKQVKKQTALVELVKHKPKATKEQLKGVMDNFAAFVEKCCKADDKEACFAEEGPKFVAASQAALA

B1: Tencon25 (designed binder)
chain: LPAPKNLVVSEVTEDSARLSWTAPDAAFDSFLIQYQESEKVGEAIVLTVPGSERSYDLTGLKPGTEYTVSIYGVKGGHRSNPLSAIFTT
notes: Negative control of the pull-down; also called Tc25; TC25
Take B1: the binding result in the experiment with Cynomolgus Serum Albumin and with Human Serum Albumin was “no binding” in each case.

These data come from patent US20170348397A1 (Janssen / Centocor, published 2017).
